In US20160083701A1 (UNITED STATES OF AMERICA AS REPRESENTED BY THE DEPARTMENT …, published 2016):

Tests used:
[1] = target: His-tagged recombinant rat AKAP18δ (rAKAP18δ) (rat) (UniProt Q6JP77); assay: co-IP with anti-his beads, anti-Flag immunoblot, band ratios; reference is the same reaction without rPKAc
[2] = target: T1, Purified recombinant SERCA2 (rSERCA2, Abnova) (UniProt P16615 1-1042, limits assumed); assay: co-IP of the Flag-tagged construct with purified rSERCA2 (150 ng), anti-Flag IP, anti-SERCA2 immunoblot
T1 construct: Bought protein; The legend gives 1042 amino acids, while the discussion calls it SERCA2a
Source text: FIG. 11 a-d. rPKAc phosphorylates rhPDE3A and increases its interactions rSERCA2. A. Schemes representing PDE3A1 [NHR1: trans-membrane domain (obligatory membrane insertion domain); NHR2: membrane association domain; CCR: conserved C-terminal catalytic region; P1-4: predicted PKA phosphorylation sites; rhPDE3A and truncated mutants (PDE3A2, PDE3A-A510, PDE3A-RD), and rSERCA2 (1042 amino acids, 3-77 cation transporter N-terminal; 93-341, E1-E2 ATPase; 345-724, haloacid dehydrogenase like hydrolase; 819-991, cation transporter ATPase C-terminus). B. Putative PKA phosphorylation sites of PDE3A designated with asterisks. […] Proteins were immunoprecipitated with anti-Flag antibodies and immunoblotted with anti-SERCA2 (upper panel), or anti-Flag (middle panel). Lower panel: input control (SERCA2). Shown are representative blots from three independent experiments. (RD: regulatory domain; AA: amino acid).

T1 sequence (P16615 whole entry): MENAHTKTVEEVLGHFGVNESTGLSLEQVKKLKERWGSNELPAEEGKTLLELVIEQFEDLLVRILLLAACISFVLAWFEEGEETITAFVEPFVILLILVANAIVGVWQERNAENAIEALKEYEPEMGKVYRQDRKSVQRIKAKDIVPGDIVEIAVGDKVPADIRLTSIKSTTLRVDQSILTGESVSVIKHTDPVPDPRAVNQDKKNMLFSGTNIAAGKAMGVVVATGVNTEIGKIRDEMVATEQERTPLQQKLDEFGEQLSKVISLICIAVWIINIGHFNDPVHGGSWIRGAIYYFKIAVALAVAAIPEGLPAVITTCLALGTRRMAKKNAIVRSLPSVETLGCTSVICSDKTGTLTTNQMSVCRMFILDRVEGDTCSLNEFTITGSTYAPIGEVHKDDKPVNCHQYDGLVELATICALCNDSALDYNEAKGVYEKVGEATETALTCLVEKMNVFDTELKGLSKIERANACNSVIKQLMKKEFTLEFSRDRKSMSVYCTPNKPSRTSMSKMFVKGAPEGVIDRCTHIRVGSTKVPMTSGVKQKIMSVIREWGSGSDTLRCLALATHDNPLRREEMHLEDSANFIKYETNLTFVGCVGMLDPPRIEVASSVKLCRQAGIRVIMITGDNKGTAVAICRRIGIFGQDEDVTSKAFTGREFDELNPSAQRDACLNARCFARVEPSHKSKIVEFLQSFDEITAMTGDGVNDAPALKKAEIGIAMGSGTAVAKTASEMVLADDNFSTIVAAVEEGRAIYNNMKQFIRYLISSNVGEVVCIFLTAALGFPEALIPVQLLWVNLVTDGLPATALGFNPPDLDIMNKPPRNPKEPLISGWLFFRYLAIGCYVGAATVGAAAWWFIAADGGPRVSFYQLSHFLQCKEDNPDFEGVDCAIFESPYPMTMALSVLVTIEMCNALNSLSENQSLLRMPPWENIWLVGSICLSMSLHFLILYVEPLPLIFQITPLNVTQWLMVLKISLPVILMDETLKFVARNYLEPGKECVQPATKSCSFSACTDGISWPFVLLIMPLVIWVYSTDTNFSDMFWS
Chain of His-tagged recombinant rat AKAP18δ (rAKAP18δ) (rat) (Q6JP77 whole entry, stated change not applied): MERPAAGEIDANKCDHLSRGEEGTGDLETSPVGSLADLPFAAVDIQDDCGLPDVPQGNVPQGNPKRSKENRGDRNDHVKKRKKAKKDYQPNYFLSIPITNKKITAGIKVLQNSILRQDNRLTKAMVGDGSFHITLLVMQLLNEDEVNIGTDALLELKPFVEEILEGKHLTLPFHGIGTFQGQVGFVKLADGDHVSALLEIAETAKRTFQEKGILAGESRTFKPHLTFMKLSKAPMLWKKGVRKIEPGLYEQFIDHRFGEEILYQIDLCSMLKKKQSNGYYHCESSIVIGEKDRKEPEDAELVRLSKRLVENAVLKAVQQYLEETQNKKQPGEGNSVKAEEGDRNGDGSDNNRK

## Flag-tagged recombinant human PDE3A1 (rhPDE3A1), phosphorylated in vitro by rPKAc (from UniProt Q14432 146-1141) (enzyme)
[1]
  fold increase in binding (with rPKAc against control without rPKAc): 9 fold

B1: rhPDE3A-A510 (recombinant form lacking the first 510 aa of the PDE3A open reading frame) (enzyme)
chain: SRPGALAKISPLSSPCSSPLQGTPASSLVSKISAVQFPESADTTAKQSLGSHRALTYTQSAPDLSPQILTPPVICSSCGRPYSQGNPADEPLERSGVATRTPSRTDDTAQVTSDYETNNNSDSSDIVQNEDETECLREPLRKASACSTYAPETMMFLDKPILAPEPLVMDNLDSIMEQLNTWNFPIFDLVENIGRKCGRILSQVSYRLFEDMGLFEAFKIPIREFMNYFHALEIGYRDIPYHNRIHATDVLHAVWYLTTQPIPGLSTVINDHGSTSDSDSDSGFTHGHMGYVFSKTYNVTDDKYGCLSGNIPALELMALYVAAAMHDYDHPGRTNAFLVATSAPQAVLYNDRSVLENHHAAAAWNLFMSRPEYNFLINLDHVEFKHFRFLVIEAILATDLKKHFDFVAKFNGKVNDDVGIDWTNENDRLLVCQMCIKLADINGPAKCKELHLQWTDGIVNEFYEQGDEEASLGLPISPFMDRSAPQLANLQESFISHIVGPLCNSYDSAGLMPGKWVEDSDESGDTDDPEEEEEEAPAPNEEETCENNESPKKKTFKRRKIYCQITQHLLQNHKMWKKVIEEEQRLAGIENQSLDQTPQSHSSEQIQAIKEEEEEKGKPRGEEIPTQKPDQ
notes: The range 511-1141 follows from the statement that the first 510 aa of the open reading frame were deleted; Incubated with or without rPKAc
[2]
  binding result: no binding
